Laboratory results taken from article PMC3501484.

Target: Flk1 (UniProt P35918)
Sequence of UniProt P35918 (P35918 20-1345): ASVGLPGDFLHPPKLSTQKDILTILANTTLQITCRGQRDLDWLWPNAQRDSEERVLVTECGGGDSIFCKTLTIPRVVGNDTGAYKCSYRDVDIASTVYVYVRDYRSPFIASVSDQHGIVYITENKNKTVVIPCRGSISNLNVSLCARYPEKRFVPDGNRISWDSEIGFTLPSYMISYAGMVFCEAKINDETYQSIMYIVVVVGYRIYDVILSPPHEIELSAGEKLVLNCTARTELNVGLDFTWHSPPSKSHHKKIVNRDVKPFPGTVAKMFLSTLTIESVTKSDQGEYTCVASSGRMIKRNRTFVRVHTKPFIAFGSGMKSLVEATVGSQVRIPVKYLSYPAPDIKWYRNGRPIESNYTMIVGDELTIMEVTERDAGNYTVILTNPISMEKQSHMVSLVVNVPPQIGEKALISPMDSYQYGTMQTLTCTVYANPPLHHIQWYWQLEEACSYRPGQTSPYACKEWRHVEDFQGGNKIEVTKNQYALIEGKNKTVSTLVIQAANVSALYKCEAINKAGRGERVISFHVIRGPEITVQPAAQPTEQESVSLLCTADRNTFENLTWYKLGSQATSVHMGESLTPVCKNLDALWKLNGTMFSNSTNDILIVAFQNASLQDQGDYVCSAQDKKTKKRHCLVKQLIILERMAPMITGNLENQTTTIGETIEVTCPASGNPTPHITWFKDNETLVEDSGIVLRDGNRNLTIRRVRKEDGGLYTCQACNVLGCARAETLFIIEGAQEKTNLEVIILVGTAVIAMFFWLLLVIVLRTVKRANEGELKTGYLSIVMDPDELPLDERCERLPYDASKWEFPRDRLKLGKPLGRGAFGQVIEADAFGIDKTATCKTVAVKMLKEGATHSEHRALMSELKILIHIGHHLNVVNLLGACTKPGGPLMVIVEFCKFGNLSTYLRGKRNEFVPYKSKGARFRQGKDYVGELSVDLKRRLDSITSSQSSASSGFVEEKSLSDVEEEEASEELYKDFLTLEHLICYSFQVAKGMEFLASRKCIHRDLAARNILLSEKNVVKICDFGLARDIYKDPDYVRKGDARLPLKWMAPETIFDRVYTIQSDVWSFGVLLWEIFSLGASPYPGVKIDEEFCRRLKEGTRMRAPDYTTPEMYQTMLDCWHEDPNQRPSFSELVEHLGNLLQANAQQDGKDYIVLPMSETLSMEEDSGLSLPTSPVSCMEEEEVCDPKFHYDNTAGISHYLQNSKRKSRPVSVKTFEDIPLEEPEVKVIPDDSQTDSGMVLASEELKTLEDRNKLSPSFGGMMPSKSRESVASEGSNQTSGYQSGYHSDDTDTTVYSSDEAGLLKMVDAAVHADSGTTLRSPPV

Substance VEGF 165 (ligand) has a 3.9 kb Etv2 luciferase reporter (standardized to Renilla) in 293T cells cotransfected with the Flk1 expression vector, VEGF 50 ng/ml for 2, 6 or 18 hours of 15 fold.
